The source of these data is patent publication US20240301064A1 (published 2024).

Sequences and labels used below:
B1: MIAB145 (antibody, human IgG1, kappa)
heavy: EVQLLESGGGLVQPGGSLRLSCAASGFTFSDFWMHWVRQAPGKGLEWISYISGDSGYTNYADSVKGRFTISRDNSKNTLYLQMNSLRAEDTAVYYCARDRPYYYYMDVWGKGTTVTVSSASTKGPSVFPLAPSSKSTSGGTAALGCLVKDYFPEPVTVSWNSGALTSGVHTFPAVLQSSGLYSLSSVVTVPSSSLGTQTYICNVNHKPSNTKVDKKVEPKSCDKTHTCPPCPAPEAAGAPSVFLFPPKPKDTLMISRTPEVTCVVVDVSHEDPEVKFNWYVDGVEVHNAKTKPREEQYNSTYRVVSVLTVLHQDWLNGKEYKCKVSNKALPAPIEKTISKAKGQPREPQVYTLPPSREEMTKNQVSLTCLVKGFYPSDIAVEWESNGQPENNYKTTPPVLDSDGSFFLYSKLTVDKSRWQQGNVFSCSVMHEALHNHYTQKSLSLSPGGGGGSAPTSSSTKKTQLQLEHLLLDLQMILNGINNYKNPKLTRMLTFKFYMPKKATELKHLQCLEEELKPLEEALNLAPSKNFHLRPRDLISDINVIVLELKGSETTFMCEYADETATIVEFINRWITFSQSIISTLT
light: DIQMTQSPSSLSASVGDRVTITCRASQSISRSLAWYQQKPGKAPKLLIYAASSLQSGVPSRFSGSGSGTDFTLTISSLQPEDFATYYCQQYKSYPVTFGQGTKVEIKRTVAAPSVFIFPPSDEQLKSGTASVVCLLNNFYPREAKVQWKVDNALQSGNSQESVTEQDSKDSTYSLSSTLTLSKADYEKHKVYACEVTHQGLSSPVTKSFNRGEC
notes: also called MIAB145-001
B2: MIAB149 (antibody, human IgG1, kappa)
heavy: EVQLLESGGGLVQPGGSLRLSCAASGFTFSDFWMHWVRQAPGKGLEWISYISGDSGYTNYADSVKGRFTISRDNSKNTLYLQMNSLRAEDTAVYYCARDRPYYYYMDVWGKGTTVTVSSASTKGPSVFPLAPSSKSTSGGTAALGCLVKDYFPEPVTVSWNSGALTSGVHTFPAVLQSSGLYSLSSVVTVPSSSLGTQTYICNVNHKPSNTKVDKKVEPKSCDKTHTCPPCPAPEAAGAPSVFLFPPKPKDTLMISRTPEVTCVVVDVSHEDPEVKFNWYVDGVEVHNAKTKPREEQYNSTYRVVSVLTVLHQDWLNGKEYKCKVSNKALPAPIEKTISKAKGQPREPQVYTLPPSREEMTKNQVSLTCLVKGFYPSDIAVEWESNGQPENNYKTTPPVLDSDGSFFLYSKLTVDKSRWQQGNVFSCSVMHEALHNHYTQKSLSLSPGGGGGSAPTSSSTKKTQLQLEHLLLDLQMILNGINNYKNPKLTRMLTFKFYMPKKATELKHLQCLEEELKPLEEALNLAPSKNFHLRPRDLISDINVIVLELKGSETTFMCEYADETATIVEFINRWITFSQSIISTLT
light: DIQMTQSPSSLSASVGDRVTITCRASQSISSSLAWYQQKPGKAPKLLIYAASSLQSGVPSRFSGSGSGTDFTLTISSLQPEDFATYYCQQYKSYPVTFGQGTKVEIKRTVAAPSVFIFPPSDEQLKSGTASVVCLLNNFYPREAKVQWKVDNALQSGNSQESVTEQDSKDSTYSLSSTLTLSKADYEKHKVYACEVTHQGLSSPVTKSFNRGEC
notes: also called MIAB149-001
B3: MIAB147 (antibody, human IgG1, kappa)
heavy: EVQLLESGGGLVQPGGSLRLSCAASGFTFSDFWMHWVRQAPGKGLEWISYISGDSGYTNYADSVKGRFTISRDNSKNTLYLQMNSLRAEDTAVYYCARDRPYYYYMDVWGKGTTVTVSSASTKGPSVFPLAPSSKSTSGGTAALGCLVKDYFPEPVTVSWNSGALTSGVHTFPAVLQSSGLYSLSSVVTVPSSSLGTQTYICNVNHKPSNTKVDKKVEPKSCDKTHTCPPCPAPEAAGAPSVFLFPPKPKDTLMISRTPEVTCVVVDVSHEDPEVKFNWYVDGVEVHNAKTKPREEQYNSTYRVVSVLTVLHQDWLNGKEYKCKVSNKALPAPIEKTISKAKGQPREPQVYTLPPSREEMTKNQVSLTCLVKGFYPSDIAVEWESNGQPENNYKTTPPVLDSDGSFFLYSKLTVDKSRWQQGNVFSCSVMHEALHNHYTQKSLSLSPGGGGGSAPTSSSTKKTQLQLEHLLLDLQMILNGINNYKNPKLTRMLTFKFYMPKKATELKHLQCLEEELKPLEEALNLAPSKNFHLRPRDLISDINVIVLELKGSETTFMCEYADETATIVEFINRWITFSQSIISTLT
light: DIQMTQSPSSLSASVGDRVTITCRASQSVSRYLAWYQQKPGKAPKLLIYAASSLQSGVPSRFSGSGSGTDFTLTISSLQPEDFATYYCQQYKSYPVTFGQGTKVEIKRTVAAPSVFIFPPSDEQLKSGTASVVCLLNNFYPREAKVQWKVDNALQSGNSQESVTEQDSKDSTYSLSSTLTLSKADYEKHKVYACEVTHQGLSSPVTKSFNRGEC
notes: also called MIAB147-001
B4: MIAB146 (antibody, human IgG1, kappa)
heavy: EVQLLESGGGLVQPGGSLRLSCAASGFTFSDFWMHWVRQAPGKGLEWISYISGDSGYTNYADSVKGRFTISRDNSKNTLYLQMNSLRAEDTAVYYCARDRPYYYYMDVWGKGTTVTVSSASTKGPSVFPLAPSSKSTSGGTAALGCLVKDYFPEPVTVSWNSGALTSGVHTFPAVLQSSGLYSLSSVVTVPSSSLGTQTYICNVNHKPSNTKVDKKVEPKSCDKTHTCPPCPAPEAAGAPSVFLFPPKPKDTLMISRTPEVTCVVVDVSHEDPEVKFNWYVDGVEVHNAKTKPREEQYNSTYRVVSVLTVLHQDWLNGKEYKCKVSNKALPAPIEKTISKAKGQPREPQVYTLPPSREEMTKNQVSLTCLVKGFYPSDIAVEWESNGQPENNYKTTPPVLDSDGSFFLYSKLTVDKSRWQQGNVFSCSVMHEALHNHYTQKSLSLSPGGGGGSAPTSSSTKKTQLQLEHLLLDLQMILNGINNYKNPKLTRMLTFKFYMPKKATELKHLQCLEEELKPLEEALNLAPSKNFHLRPRDLISDINVIVLELKGSETTFMCEYADETATIVEFINRWITFSQSIISTLT
light: DIQMTQSPSSLSASVGDRVTITCRASQSVSSSLAWYQQKPGKAPKLLIYAASSLQSGVPSRFSGSGSGTDFTLTISSLQPEDFATYYCQQYKSYPVTFGQGTKVEIKRTVAAPSVFIFPPSDEQLKSGTASVVCLLNNFYPREAKVQWKVDNALQSGNSQESVTEQDSKDSTYSLSSTLTLSKADYEKHKVYACEVTHQGLSSPVTKSFNRGEC
notes: also called MIAB146-001
B5: PMAB137 (bispecific antibody, human IgG1, kappa)
heavy: EVQLLESGGGLVQPGGSLRLSCAASGFTFSNSAMSWVRQAPGKGLEWVSGITISGGSTYYADSVKGRFTISRDNSKNTLYLQMNSLRAEDTAVYYCARGRGGSGWLDYWGQGTLVTVSSASTKGPSVFPLAPSSKSTSGGTAALGCLVKDYFPEPVTVSWNSGALTSGVHTFPAVLQSSGLYSLSSVVTVPSSSLGTQTYICNVNHKPSNTKVDKKVEPKSCDKTHTCPPCPAPEAAGAPSVFLFPPKPKDTLMISRTPEVTCVVVDVSHEDPEVKFNWYVDGVEVHNAKTKPREEQYNSTYRVVSVLTVLHQDWLNGKEYKCKVSNKALPAPIEKTISKAKGQPREPQVYTLPPSREEMTKNQVSLTCLVKGFYPSDIAVEWESNGQPENNYKTTPPVLDSDGSFFLYSKLTVDKSRWQQGNVFSCSVMHEALHNHYTQKSLSLSPGGGGGSGGGGSGGGGSEVQLLESGGGLVQPGGSLRLSCAASGFTFSDFWMHWVRQAPGKGLEWISYISGDSGYTNYADSVKGRFTISRDNSKNTLYLQMNSLRAEDTAVYYCARDRPYYYYMDVWGKGTTVTVSSGGGGSGGGGSGGGGSGGGGSDIQMTQSPSSLSASVGDRVTITCRASQSVSRSLAWYQQKPGKAPKLLIYAASSLQSGVPSRFSGSGSGTDFTLTISSLQPEDFATYYCQQYKSYPVTFGQGTKVEIK
light: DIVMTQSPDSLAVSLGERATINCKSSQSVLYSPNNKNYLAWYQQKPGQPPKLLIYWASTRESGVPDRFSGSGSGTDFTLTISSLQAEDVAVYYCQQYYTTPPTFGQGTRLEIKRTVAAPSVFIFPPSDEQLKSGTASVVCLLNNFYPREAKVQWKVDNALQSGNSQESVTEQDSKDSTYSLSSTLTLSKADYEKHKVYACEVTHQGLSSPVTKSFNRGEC
B6: PMAB144 (bispecific antibody, human IgG1, kappa)
heavy: EVQLLESGGGLVQPGGSLRLSCAASGFTFSNSDMSWVRQAPGKGLEWVSGITISGGSTYYADSVKGRFTISRDNSKNTLYLQMNSLRAEDTAVYYCARGRGGSGWLDYWGQGTLVTVSSASTKGPSVFPLAPSSKSTSGGTAALGCLVKDYFPEPVTVSWNSGALTSGVHTFPAVLQSSGLYSLSSVVTVPSSSLGTQTYICNVNHKPSNTKVDKKVEPKSCDKTHTCPPCPAPEAAGAPSVFLFPPKPKDTLMISRTPEVTCVVVDVSHEDPEVKFNWYVDGVEVHNAKTKPREEQYNSTYRVVSVLTVLHQDWLNGKEYKCKVSNKALPAPIEKTISKAKGQPREPQVYTLPPSREEMTKNQVSLTCLVKGFYPSDIAVEWESNGQPENNYKTTPPVLDSDGSFFLYSKLTVDKSRWQQGNVFSCSVMHEALHNHYTQKSLSLSPGGGGGSGGGGSGGGGSEVQLLESGGGLVQPGGSLRLSCAASGFTFSDFWMHWVRQAPGKGLEWISYISGDSGYTNYADSVKGRFTISRDNSKNTLYLQMNSLRAEDTAVYYCARDRPYYYYMDVWGKGTTVTVSSGGGGSGGGGSGGGGSGGGGSDIQMTQSPSSLSASVGDRVTITCRASQSVSRSLAWYQQKPGKAPKLLIYAASSLQSGVPSRFSGSGSGTDFTLTISSLQPEDFATYYCQQYKSYPVTFGQGTKVEIK
light: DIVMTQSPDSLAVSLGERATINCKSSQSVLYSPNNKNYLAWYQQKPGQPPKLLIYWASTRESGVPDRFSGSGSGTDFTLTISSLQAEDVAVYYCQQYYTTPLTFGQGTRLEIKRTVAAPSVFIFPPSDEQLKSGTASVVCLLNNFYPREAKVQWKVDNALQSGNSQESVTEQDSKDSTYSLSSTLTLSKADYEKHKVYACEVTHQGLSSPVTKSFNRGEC
B7: PMAB179 (bispecific antibody, human IgG1, kappa)
heavy: EVQLLESGGGLVQPGGSLRLSCAASGFTFSSYDMSWVRQAPGKGLEWVSAISISGGSTYYADSVKGRFTISRDNSKNTLYLQMNSLRAEDTAVYYCARGRGGSGWLDYWGQGTLVTVSSASTKGPSVFPLAPSSKSTSGGTAALGCLVKDYFPEPVTVSWNSGALTSGVHTFPAVLQSSGLYSLSSVVTVPSSSLGTQTYICNVNHKPSNTKVDKKVEPKSCDKTHTCPPCPAPEAAGAPSVFLFPPKPKDTLMISRTPEVTCVVVDVSHEDPEVKFNWYVDGVEVHNAKTKPREEQYNSTYRVVSVLTVLHQDWLNGKEYKCKVSNKALPAPIEKTISKAKGQPREPQVYTLPPSREEMTKNQVSLTCLVKGFYPSDIAVEWESNGQPENNYKTTPPVLDSDGSFFLYSKLTVDKSRWQQGNVFSCSVMHEALHNHYTQKSLSLSPGGGGGSGGGGSGGGGSEVQLLESGGGLVQPGGSLRLSCAASGFTFSDFWMHWVRQAPGKGLEWISYISGDSGYTNYADSVKGRFTISRDNSKNTLYLQMNSLRAEDTAVYYCARDRPYYYYMDVWGKGTTVTVSSGGGGSGGGGSGGGGSGGGGSDIQMTQSPSSLSASVGDRVTITCRASQSVSRSLAWYQQKPGKAPKLLIYAASSLQSGVPSRFSGSGSGTDFTLTISSLQPEDFATYYCQQYKSYPVTFGQGTKVEIK
light: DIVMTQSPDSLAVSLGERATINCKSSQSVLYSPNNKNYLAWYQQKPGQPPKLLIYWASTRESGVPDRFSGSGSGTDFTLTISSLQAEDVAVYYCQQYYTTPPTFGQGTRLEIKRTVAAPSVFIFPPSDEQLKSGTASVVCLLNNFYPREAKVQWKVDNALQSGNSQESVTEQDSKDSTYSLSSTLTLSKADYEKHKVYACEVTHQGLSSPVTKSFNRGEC
B8: PMAB145 (bispecific antibody, human IgG1, kappa)
heavy: EVQLLESGGGLVQPGGSLRLSCAASGFTFSNSDMSWVRQAPGKGLEWVSGITISGGSTYYADSVKGRFTISRDNSKNTLYLQMNSLRAEDTAVYYCARGRGGSGWLDYWGQGTLVTVSSASTKGPSVFPLAPSSKSTSGGTAALGCLVKDYFPEPVTVSWNSGALTSGVHTFPAVLQSSGLYSLSSVVTVPSSSLGTQTYICNVNHKPSNTKVDKKVEPKSCDKTHTCPPCPAPEAAGAPSVFLFPPKPKDTLMISRTPEVTCVVVDVSHEDPEVKFNWYVDGVEVHNAKTKPREEQYNSTYRVVSVLTVLHQDWLNGKEYKCKVSNKALPAPIEKTISKAKGQPREPQVYTLPPSREEMTKNQVSLTCLVKGFYPSDIAVEWESNGQPENNYKTTPPVLDSDGSFFLYSKLTVDKSRWQQGNVFSCSVMHEALHNHYTQKSLSLSPGGGGGSGGGGSGGGGSEVQLLESGGGLVQPGGSLRLSCAASGFTFSDFWMHWVRQAPGKGLEWISYISGDSGYTNYADSVKGRFTISRDNSKNTLYLQMNSLRAEDTAVYYCARDRPYYYYMDVWGKGTTVTVSSGGGGSGGGGSGGGGSGGGGSDIQMTQSPSSLSASVGDRVTITCRASQSVSRSLAWYQQKPGKAPKLLIYAASSLQSGVPSRFSGSGSGTDFTLTISSLQPEDFATYYCQQYKSYPVTFGQGTKVEIK
light: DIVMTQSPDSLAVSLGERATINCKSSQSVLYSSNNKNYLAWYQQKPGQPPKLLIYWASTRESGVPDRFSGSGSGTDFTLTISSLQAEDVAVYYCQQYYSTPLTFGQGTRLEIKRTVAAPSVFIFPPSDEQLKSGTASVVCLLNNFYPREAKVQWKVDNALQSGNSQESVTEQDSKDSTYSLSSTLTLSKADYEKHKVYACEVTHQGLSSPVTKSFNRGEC

T2 sequence (Q15116 25-167 limits assumed): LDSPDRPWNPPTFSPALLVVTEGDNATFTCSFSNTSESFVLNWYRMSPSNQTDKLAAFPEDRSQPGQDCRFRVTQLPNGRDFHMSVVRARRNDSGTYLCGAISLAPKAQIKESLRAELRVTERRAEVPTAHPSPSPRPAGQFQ

For one assay, the target named is T1, Insulin.
T1 construct: polyreactivity antigen
T1 sequence (P01308 25-54, chain 1 of 2): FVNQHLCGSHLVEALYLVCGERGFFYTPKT
T1 sequence (P01308 90-110, chain 2 of 2): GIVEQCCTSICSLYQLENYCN
Description: ELISA on coated insulin, 100 nM antibody. (In general: In an ELISA, binding on a coated surface is turned into a signal by an enzyme label.)
Molecule B1 displayed an Insulin polyreactivity score of 4.58. The same measure, in the same setting: the value for B2 was 3.53. In turn, B3 came in with an Insulin polyreactivity score of 3.81. In the case of B4, the Insulin polyreactivity score was found to be 2.61.

A further assay concerns the target T2, human PD-1 (human, UniProt Q15116 25-167, limits assumed).
T2 construct: also called huPD-1
As to the kind of experiment: BLI, antibody on AHC tip. Background: BLI is a label-free optical method that tracks binding on a fibre tip over time.
Regarding B5, the binding result is “no binding (tested: 1000 nM)”. Regarding B6, the binding result is on record as “no binding (tested: 1000 nM)”. As to B7, the binding result is on record as “no binding (tested: 1000 nM)”. Regarding B8, the binding result is listed as “no binding (tested: 1000 nM)”.
